The test addresses T1, ectodomain of human CTLA-4 (aa 31-161) (human, UniProt P16410-1).
T1 construct: CTLA-4, human, ectodomain, residues 31-161 of UniProt P16410-1; Homodimer held by a disulfide bond (non-reducing SDS-PAGE and crystal structure); Cloned into pET-21a; also called extracellular domain of CTLA-4
Description: SPR; BIAcore T100, CM5 chip, CTLA-4 immobilised (5 μg/ml), scFv flowed at 6.25-200 nM, room temperature, HBS-EP (150 mM NaCl, 10 mM HEPES pH 7.4, 0.005% Tween-20), 1:1 Langmuir model. Particulars: both partners purified. On the technique in general: SPR reads the build-up and loss of mass on a sensor chip optically.

T1 sequence (P16410 31-161): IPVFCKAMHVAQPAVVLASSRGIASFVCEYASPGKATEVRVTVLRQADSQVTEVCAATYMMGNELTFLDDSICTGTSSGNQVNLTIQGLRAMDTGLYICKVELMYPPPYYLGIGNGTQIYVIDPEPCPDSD

B1: scFv fragment of tremelimumab (scFv, V domains shown)
VH: QVQLVESGGGVVQPGRSLRLSCAASGFTFSSYGMHWVRQAPGKGLEWVAVIWYDGSNKYYADSVKGRFTISRDNSKNTLYLQMNSLRAEDTAVYYCARDPRGATLYYYYYGMDVWGQGTTVTVSS
VL: DIQMTQSPSSLSASVGDRVTITCRASQSINSYLDWYQQKPGKAPKLLIYAASSLQSGVPSRFSGSGSGTDFTLTISSLQPEDFATYYCQQYYSTPFTFGPGTKVEIK
notes: VL of tremelimumab (IGKV1-39 framework); the Fab of tremelimumab is in PDB 5GGV; linker, printed as GG(GGSGG)3GG; VH of tremelimumab (IGHV3-33 framework); Built as VL-GG(GGSGG)3GG-VH in pET21a; The parent antibody is an IgG2; only the scFv was made here; also called tremelimumab-scFv; CP-675,206
The molecule B1 registered a Kd of 5.89 nM, a koff of 0.0018 s⁻¹ and a kon of 308000 M⁻¹ s⁻¹.

A word on the Kd: it is the concentration at which binding is half-saturated. A high value points to lower affinity. Broadly, the koff is the first-order rate constant of dissociation. A high value points to a short-lived complex. By kon is commonly meant a measure of how fast the partners come together. Lower therefore signals slow association.
